Drawing on patent publication US20230365685A1, this text covers inhibit percentage for 2 molecules.

Assay [1] concerns the target biotinylated human TIM-3 (human) (UniProt Q8TDQ0). As to the kind of experiment: competition ELISA: antibody coated, biotinylated human TIM-3 preincubated with competitor 3E6. Background: ELISA stands for enzyme-linked immunosorbent assay.
For assay [2] the target is unchanged. The assay can be described thus: competition ELISA: antibody coated, biotinylated human TIM-3 preincubated with competitor 4H2.
Assay [3] has the same target. As to the kind of experiment: competition ELISA: antibody coated, biotinylated human TIM-3 preincubated with competitor 16H1.
Assay [4] shares this target. The assay can be described thus: competition ELISA: antibody coated, biotinylated human TIM-3 preincubated with competitor 19D11.
For assay [5] the target is unchanged. The assay can be described thus: competition ELISA: antibody coated, biotinylated human TIM-3 preincubated with competitor CH 10#.
The target is the same in assay [6]. The assay can be described thus: competition ELISA: antibody coated, biotinylated human TIM-3 preincubated with competitor CH 11#.
Assay [7] has the same target. As to the kind of experiment: competition ELISA: antibody coated, biotinylated human TIM-3 preincubated with competitor MBG453.
Assay [8] has the same target. The assay can be described thus: competition ELISA: antibody coated, biotinylated human TIM-3 preincubated with competitor TSR022.

B1: MBG453 (antibody, INN chains, looked up, V domains shown)
VH: QVQLVQSGAEVKKPGSSVKVSCKASGYTFTSYNMHWVRQAPGQGLEWMGDIYPGNGDTSYNQKFKGRVTITADKSTSTVYMELSSLRSEDTAVYYCARVGGAFPMDYWGQGTTVTVSS
VL: AIQLTQSPSSLSASVGDRVTITCRASESVEYYGTSLMQWYQQKPGKAPKLLIYAASNVESGVPSRFSGSGSGTDFTLTISSLQPEDFATYFCQQSRKDPSTFGGGTKVEIKR
As to B1, the inhibit percentage is 94.3% in assay [1]; 95.9% in assay [2]; 99.2% in assay [3]; 4.39% in assay [4]; 15.8% in assay [5]; 8.29% in assay [6]. Moreover, the inhibit percentage in assay [7] came out at 100%; in assay [8], 94.8%.

B2: TSR022 (antibody, INN chains, looked up, V domains shown)
VH: EVQLLESGGGLVQPGGSLRLSCAAASGFTFSSYDMSWVRQAPGKGLDWVSTISGGGTYTYYQDSVKGRFTISRDNSKNTLYLQMNSLRAEDTAVYYCASMDYWGQGTTVTVSS
VL: DIQMTQSPSSLSASVGDRVTITCRASQSIRRYLNWYHQKPGKAPKLLIYGASTLQSGVPSRFSGSGSGTDFTLTISSLQPEDFAVYYCQQSHSAPLTFGGGTKVEIK
For B2, the inhibit percentage was determined as 95.8% in assay [1]; 98.1% in assay [2]; 70.2% in assay [3]; 0% in assay [4]; 40.5% in assay [5]; 0% in assay [6]. Besides, the inhibit percentage in assay [7] is 99.1%; in assay [8], 100%.
